A short description of this data set: label from the status in PepcDB records.

“MVHAFLIHTLRAPNTEDTGLCRVLYSCVFGAEKSPDDPRPHGAERDRLLRKEQILAVARQVESMCRLQQQASGRPPMDLQPQSSDEQVPLHEAPRGAFRLAAENPFQEPRTVVWLGVLSLGFALVLDAHENLLLAEGTLRLLTRLLLDHLRLLAPSTSLLLRADRIEGILTRFLPHGQLLFLNDQFVQGLEKEFSAAWPR”: the protein production result is reported as “failed”.

Consider “MVHEKKKMRKNHKKITHKGKKITTGAASVLLGAGIVVGANARPVKATSSREDEITEVDTINVISSETEKADVEQRTDTTETVETEGNVDNTNTEVSVPIDETINTEAQAANNTTQVESTVEDTTQEETTETQQNPSVDNQEPVLSDPPSVESPEDSATEVTTTKTTDEVKNAADEANKENKDKLDAEINKAEDNGHTVTQDGDKVYKADATNIDKIIEDLNQFTADQITDIETKLAKYKEELEAYKADQVRYEAELKNYQTAKDAYVKKLEEWGLYKPGDIDPSDISQSLILGEEKNSKVEVLNKGSVVDEGTGSILNGLLNHFYTIDEKFDGEFLKLQYTNLENITYMGKNIDSIQIIFSGWNPNYKGKNADKRTSGIYFSDKLTDGFFYVNSDGVTMEMILFENGKTINLDKNSAYITAGSLNSQGTGNDYIEKAEIFNNSSEYGGSAVTFQDSFIRRHDGTYGGDVLYADQNIEVLAVYPGKDQTLEDAIEEQKKLALEAGWKQEIIDKFINWDSSTDRSKAIFGAGAFMVYGNKIKIRFSNGIGSAWATYSTSIPGMAFREEKPKEPTVPEPPKLDLTYTPGHIELSKSNVHIHYVDVHDTAQAGKNDSFVPDDGIELDDHVDHQLDLLIGTGYNHDLWNFEDAGYILAEEIKDGVQNGTVIKDDQHHYVYLKHKFIPTTDEENEKKDVNQVIHYVYDATGETAYKDYHAVTLHFIKSGQKDVVNGNIIWGNWTLAQDFAGVKSPSIEGYHLKDKNDDVVGPYTIEVTEKNYQNNLDVEYTVRYVANATQELNLKKEVNQVIHYIYENGTKAHDDYHALTLLFEKKGIKDLETGEETWGEWTKTQTFVVVKSPDIQNYIADRLEVGPYEITVTDENYKTNLDKDDIVIYRARIEEVTRDKVVNQVIHYIYEDGSTARPDHVSVKLVFTQTGVKNLATNTTNWNGEWTKTQTFVVVKSPEIEGYTADREEVGPYDITVTNENYNDKLDKEDTVIYRANTNVPDNPDPDNPTPDNPDPDNPTPDTPTPDPTPGDDEEIATPPLPEDEIGNYPSQSDEDDEEERTAPHATGKETRSGTNKNNARVISLENAGSDDSVTPENVSTEATDKTDEKQTTVNSTNEKTLPATGEEKDDFAKVMSGLAAALGITGLAVTSKRRKATAKRSKKDKKNGK”, for which the protein production entry is recorded as “failed”. Under “MVIDLAVDCQRQAAVLRQQRLRTARRVDDGQTLVHQDGTGIDVHAAPVRPAMALPLRTFQGLPAQGLQVVAGLQAEDTEDGTHGNTPGKVVMGGRRINTVQDITHKKNPHRPMRVFWKLGVCVGTSPSRRPASAAHDYSRADCCGDWRWRRWTETMSWADRIPLSAATQLLRWQPSRAGKPGIPRPPRDRGRVARIMSPPSSEASAMTPRIGRLAFAALIPLVLLQGCSTTAPRTEPAKLRQLEQTAADGSFDSIWEVASQLESRNDPRAIGWYERAAATTPWTFRNALAELALGRIWASGTLTHADSPYIDQRAALRASPRKGERWYLAAAMHGNPYAIRELAKFHRERGEAAAALRWDLRVAIYERAASGPSGLPAAIAPRDGDIHPLVRDIQRRARGGDAEAQVDLGALYEKGMGGMNRDGAEALRWYRRAADQGNVYGQYFYALLLGRGSSGVTRDEETAAIWFAKASAQRFYIADASHWREAIKPPFWTFD” stands “failed”. As to “MVIGQKVLLARIPKMGDNYSTYLLDIEGTVCPISFVKETLFPYFTNKVPQLVQQDTRDSPVSNILSQFHIDNKEQLQAHILELVAKDVKDPILKQLQGYVWAHGYESGQIKAPVYADAIDFIKRKKRVFIYSSGSVKAQKLLFGYVQDPNAPAHDSLDLNSYIDGYFDINTSGKKTETQSYANILRDIGAKASEVLFLSDNPLELDAAAGVGIATGLASRPGNAPVPDGQKYQVYKNFETL”, the protein production result is “not failed”.

Take “MVIINTAAYHFVSITQPQTLADQIRAHGEIAGLKGTVLIANEGINLFLAGEKEAINAFYAWLCADVRFAALHVKYSVSAYKPFARFKVKVRPEIISFRRGDISPLQVRAPGVSAHTLRDWLRRGCDDNGRRLVMLDARNQQEIAYGTFSGAMTLPITKFTGFPGALAHYRDLLSDATVVSFCTGGIRCEKAVLWMRADGMDNVLQLEGGILGYFEQVGGEGYDGRCFVFDKRVALDPQLRPLYDMRVVASFARSEIS”: the protein production result is reported as “failed”. Under “MVINIRRSRPDEGDKLTAIWCRSVDATHDFLTKAYRKELEEMVRAFLPEAPLWVAVSTEDQPIAFMLLTGDHMDALFVDPDVRGCGVGKLLIEHALSLTPKLTTNVNEQNEQAVGFYQKMGFRVTGRSETDDLGQPYPLLNLMYEQQAEADYD” stands “not failed”.

Source of the values: a protein production outcome set (Wang et al. 2014).
